According to patent US20260201005A1:

Key:
[1] = target: KLB (β-klotho) on KLB only expressing cells (UniProt Q86Z14); assay: cell-based or functional assay
[2] = target: KLB/FGFR4 on KLB/FGFR4 expressing cells (UniProt Q86Z14); assay: cell-based or functional assay
KLB/FGFR4 on KLB/FGFR4 expressing cells, sequence (Q86Z14 whole entry, chain 1 of 2): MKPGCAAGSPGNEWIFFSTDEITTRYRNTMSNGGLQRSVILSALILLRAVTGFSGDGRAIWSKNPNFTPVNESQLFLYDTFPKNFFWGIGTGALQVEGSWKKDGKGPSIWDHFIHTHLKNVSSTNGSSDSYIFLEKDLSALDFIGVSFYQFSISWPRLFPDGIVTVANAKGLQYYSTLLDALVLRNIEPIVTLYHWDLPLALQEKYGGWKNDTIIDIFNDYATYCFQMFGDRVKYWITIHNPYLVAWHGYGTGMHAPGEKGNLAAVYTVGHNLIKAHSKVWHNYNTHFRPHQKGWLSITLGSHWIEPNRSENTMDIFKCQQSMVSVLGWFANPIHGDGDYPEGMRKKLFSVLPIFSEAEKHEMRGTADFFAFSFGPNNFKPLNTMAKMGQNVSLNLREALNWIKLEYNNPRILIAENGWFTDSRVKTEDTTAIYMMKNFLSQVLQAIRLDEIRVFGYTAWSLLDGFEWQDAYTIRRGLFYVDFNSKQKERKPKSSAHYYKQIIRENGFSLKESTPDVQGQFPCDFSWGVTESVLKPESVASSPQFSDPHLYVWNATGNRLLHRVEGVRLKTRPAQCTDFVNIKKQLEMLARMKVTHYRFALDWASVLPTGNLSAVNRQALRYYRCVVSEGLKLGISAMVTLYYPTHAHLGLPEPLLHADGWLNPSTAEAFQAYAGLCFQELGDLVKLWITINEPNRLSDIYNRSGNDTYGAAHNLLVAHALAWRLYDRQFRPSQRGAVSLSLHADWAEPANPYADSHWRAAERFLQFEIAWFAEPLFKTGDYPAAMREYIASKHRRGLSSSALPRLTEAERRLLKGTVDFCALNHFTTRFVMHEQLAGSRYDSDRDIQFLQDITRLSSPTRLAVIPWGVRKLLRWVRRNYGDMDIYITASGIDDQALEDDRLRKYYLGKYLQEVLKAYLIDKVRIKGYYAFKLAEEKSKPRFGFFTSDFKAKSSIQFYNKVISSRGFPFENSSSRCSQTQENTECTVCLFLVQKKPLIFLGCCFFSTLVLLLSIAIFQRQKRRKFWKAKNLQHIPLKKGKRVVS
KLB/FGFR4 on KLB/FGFR4 expressing cells, sequence (P22455 22-802 limits assumed, chain 2 of 2, further chain): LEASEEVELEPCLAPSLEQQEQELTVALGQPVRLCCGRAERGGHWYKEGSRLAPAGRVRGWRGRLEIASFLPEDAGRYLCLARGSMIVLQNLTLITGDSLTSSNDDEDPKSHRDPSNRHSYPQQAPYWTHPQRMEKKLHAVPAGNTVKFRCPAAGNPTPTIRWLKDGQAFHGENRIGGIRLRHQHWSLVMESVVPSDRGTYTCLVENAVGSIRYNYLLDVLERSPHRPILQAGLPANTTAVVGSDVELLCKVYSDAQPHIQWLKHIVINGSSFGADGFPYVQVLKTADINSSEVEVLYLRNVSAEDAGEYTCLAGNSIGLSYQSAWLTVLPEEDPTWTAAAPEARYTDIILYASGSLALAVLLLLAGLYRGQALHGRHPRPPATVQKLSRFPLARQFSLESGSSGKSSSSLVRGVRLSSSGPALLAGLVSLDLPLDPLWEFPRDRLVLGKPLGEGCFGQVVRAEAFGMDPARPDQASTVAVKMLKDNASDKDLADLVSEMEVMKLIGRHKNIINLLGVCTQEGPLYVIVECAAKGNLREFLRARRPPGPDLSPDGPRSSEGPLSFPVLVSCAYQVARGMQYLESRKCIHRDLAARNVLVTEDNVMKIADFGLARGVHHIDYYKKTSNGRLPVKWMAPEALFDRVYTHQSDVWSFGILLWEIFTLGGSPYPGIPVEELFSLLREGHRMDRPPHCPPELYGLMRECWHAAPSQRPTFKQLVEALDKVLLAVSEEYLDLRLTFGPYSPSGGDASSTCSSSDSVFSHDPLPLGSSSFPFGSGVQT

KLB (β-klotho) on KLB only expressing cells, sequence (Q86Z14 whole entry): as the sequence (Q86Z14 whole entry, chain 1 of 2) above

| pERK functional assay, fold increase of pERK at 3000 nM [1] | pERK functional assay, fold increase in pERK at 3000 nM [2] | Substance |
| --- | --- | --- |
| 2 fold | – | FGF-19 (from UniProt O95750 25-216) (ligand) |
| 2 fold | < 2 fold | FGF-21 (native / wild type human Fibroblast Growth Factor-21) (from UniProt Q9NSA1 29-209) (ligand) |
| – | < 2 fold | Mutant FGF21-GalNAc-SA-PEG-20 kDa (BIO89-100) (from UniProt Q9NSA1 29-209) (ligand) |
